The target of series [1] is T1, His6-MBP-FXR1P (Homo sapiens, UniProt P51114-2 1-539). Description: EMSA; 250 nM protein; FA: 20 mM Tris pH 7.5, 75 mM KCl, 5 mM MgCl2, 1 uM BSA, 1 mM DTT, 100 ng/uL tRNA, ~5 nM RNA, RT 1 h; EMSA: 50 mM Tris pH 7.5, 145 mM KCl, 5 mM MgCl2, 1 uM BSA. The note with it: protein: recombinant, tags: N-terminal His6-MBP.
In another series the target is His6-MBP (UniProt P0AEX9 27-392). Nature of the series: fluorescence anisotropy; FA: 20 mM Tris pH 7.5, 75 mM KCl, 5 mM MgCl2, 1 uM BSA, 1 mM DTT, 100 ng/uL tRNA, ~5 nM RNA, RT 1 h; EMSA: 50 mM Tris pH 7.5, 145 mM KCl, 5 mM MgCl2, 1 uM BSA. On the technique in general: In fluorescence polarisation assays a small probe gives low polarisation when free and higher when bound to something large.

Series [2] deals with T1, His6-MBP-FXR1P. Nature of the series: fluorescence anisotropy; 75 mM K+, 5 mM Mg2+; FA: 20 mM Tris pH 7.5, 75 mM KCl, 5 mM MgCl2, 1 uM BSA, 1 mM DTT, 100 ng/uL tRNA, ~5 nM RNA, RT 1 h; EMSA: 50 mM Tris pH 7.5, 145 mM KCl, 5 mM MgCl2, 1 uM BSA. The note with it: protein: recombinant; tags: N-terminal His6-MBP; label: 3' fluorescein; G-quadruplex forming.

Data on three molecules can be found in publication PMC7522082, “A simple procedure for bacterial expression and purification of the fragile X protein family”.

T1 sequence (P51114 other isoform, or with tags, fused parts or gaps): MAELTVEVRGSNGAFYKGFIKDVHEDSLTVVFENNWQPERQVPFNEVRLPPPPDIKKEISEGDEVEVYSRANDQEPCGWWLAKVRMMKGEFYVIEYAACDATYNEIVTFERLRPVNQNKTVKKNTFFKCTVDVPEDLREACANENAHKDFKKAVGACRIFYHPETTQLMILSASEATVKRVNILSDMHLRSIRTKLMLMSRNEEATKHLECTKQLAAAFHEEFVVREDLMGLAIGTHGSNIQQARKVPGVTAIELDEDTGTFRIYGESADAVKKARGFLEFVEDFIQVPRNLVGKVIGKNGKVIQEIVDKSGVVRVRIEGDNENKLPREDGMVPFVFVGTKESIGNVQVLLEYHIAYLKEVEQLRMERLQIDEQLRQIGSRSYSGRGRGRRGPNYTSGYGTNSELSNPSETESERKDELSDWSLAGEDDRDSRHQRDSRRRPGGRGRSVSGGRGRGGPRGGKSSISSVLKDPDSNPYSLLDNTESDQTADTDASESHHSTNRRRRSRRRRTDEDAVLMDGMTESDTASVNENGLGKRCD

B1: ΔKC2 (structured_RNA)
RNA: GGGCGAAUUCGGGAUUCCGACCAGAAGGGGCUAAGGAAUGGUGGGACGAGCUAGCGGCUGGUAUGUGCGUCU
As to B1, the binding result with His6-MBP-FXR1P [1] (label: 3' fluorescein (FTSC, periodate-oxidized 3' end), loop-loop pseudoknot (kissing complex)) is given as “binds”.

B2: CR1 (ssRNA)
RNA: GCUAUCCAGAUUCUGAUU
Take B2: the binding result in the series with His6-MBP-FXR1P [1] (label: 3' fluorescein, single strand, no predicted G-quadruplex) is listed as “no binding”.

B3: poly-G17U (structured_RNA)
RNA: GGGGGGGGGGGGGGGGGU
One may read the Kd as a measure of binding affinity in units of concentration. As to B3, in the series with His6-MBP, the binding result is listed as “no binding”. Also, the Kd with His6-MBP-FXR1P [2] is 11.7 ± 1 nM.
